Test results reported in the domain aggregation screens of Martell et al. (2025).

experiment: soluble fraction after stress (log2 fold change); higher = more stays soluble; pooled small domains, quantitative proteomics; details: stress: 50 degC
Outline: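 After stress at 50°C, the amount of each protein still soluble was measured. This was done on pooled custom libraries of small protein domains, using high-throughput quantitative proteomics. The figure given is a base-two log fold change and stands for aggregation propensity, with higher values meaning more protein stays in solution.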

Sequence	soluble fraction (log2)
HMQEVILEKIQLTYLSADKLSKMAEQFSIPVKMYWVDENPMMLMVMGNESDIATFKKVLTQIDIPENKS	0.0714
HMELPADLATVLSVDDIRAIALAEVPGSTITGVELEREEGVLVYKVKFNDGSYKLYDANTGELV	0.174
HMDIEHREMKLQKLVITADSPLVGKTLKESNVRQRYNFMVVGVEEGQKNLTMINPNRRFEVGDIVWVVGEE	-0.0892
HMENLTLVIGNKLKNIRNSRNLSLDDVAELTGVSKAMLGQIERGKSNPTVSTLWKISTGLRVSFSSFIDE	-2.2
HMSVDDVALRLEFGPSDAEALAFVHRHGAILSETTDRDTGVVSVHVRLSEADAGRFNQRYGV	-0.183
HMETFGLSQRELQILSQLHKGQPLKEFAASLFITESTLKTHLSAIYRKMSVKNRVQAIEKAKQSGL	-1.24
HMNNQILYERLRDLRERNHFTQAFVSSKLNIGRATYSNYERGKRTPSLDVIMDLASFYKVPFTYF	-0.0166
HMEKEEELNSIRPDLDGNDIMEILGVPAGPKVGKAYNYLLNVRLDEGPLSRAEAISRLEAWWENQ	-0.368
HMEALNIEQKKVEIINVLLEKGKGKGRLSYKEISDQIDTVELDKDQMDELYETLMTNGIEIV	0.114
HMVTIEEMMDRLLTRVQRAVNMSFSEFSGEAKEKVEVIVSFLALLELVKQGAVDVLQHENFSDIRIENT	-0.857
HMKLISVAVMRASDAAEIAGGTDSKTLMYRAGLGLFQSWDWHGKIDIVTGSGNNAGDGYVLALLL	-0.0519
HMLEEIIDVKRFLVENVRGVSEKTALAILSEFGDKTMDVLRNSPNELYRIKGMSGKRIEVIKDAIANATAS	-0.275
HMQATETFSLIVPMSSAGNRLDVVLSELLPNFSRKKIQDAIKNGDATLNGKAPKIRDKVYGGENITITLIL	-0.432
HMSPFYALDEVDSFLDGVNVERLAALIARQAEQAQFLVVSHRRPMIGASTRTIGVTQARGAHTQVVGLP	-0.25
HMTSLAEQAYRHIRDKLSNGAFVPGEQLVNRVLATEIGVSVIPVREAINRLATEGLVKHVPGSGAFVRQ	0.0904
HMWNLPDPVVRPEGNVTVYENFKNTVEVLNREADLVLKFLQNEFGTSANIDDTGRARLTGSFSTDRVSSVI	-0.214
HMKNNYQYIVDQIKQLILDGELIVGDRLPSERDLSEMYQVSRASVREALKALETIGLLESRHGGGNYIVNH	-0.671
HMNRTKQIYNELLFRLDQGVYPPESKFPSESQLADEFSVSKVTMNKIVSMLASSGRLSRGVRGAGTFVSSP	-0.775
HMFTSVDVAPDLRTAKVFYSVLGRKKSDKEINIAINQKRKAFKKFMGPELHLKNIPDLHFYYD	-0.232
HMGLNVSYRMDGENVVETIIFSGATMIRTVTPTGTMTIKTIENGSTSTAKVNADYSVYKKIYEAQY	-2.59
HMRAERVQITDPYIELHTGPGRGFPIFFVAPREQWISIELRHTDWFKVRAVGGQVGWVQRKQLEST	-0.455
HMAEPLMTQIVEIEYADAEGLRENLEQFLTRLDEKTLLGSVLVDRHTNSLIIQAVRSDLERMLPLIETLDR	-0.731
HMDFYVILGVDRAASLSDVKRAYRRLARKHHPDINPGDPESDAFFMRVTEAYETLVDPDRRQEYDEHG	-1.03
HMDSQSVFADLVKSLSQKIASIPVWFEYTKNEQYDLISSYVSAKLKDLGVEFSQEEKEKFITMFMNS	-0.267
HMDDAIAEKTGGAVSSVNQRQAILDHIREAYGIELESLRSTDIERYLDDPEIPEPVKDILRDRLRGAK	0.181

Sequence	soluble fraction (log2)
HMDEVVVVERGGVQITMSEIDAKIMELPVDVRPSYLDSPERLQNFVSNLLLEKQAAQLKSQY	-0.153
HMSKPVYILINKPKGFLASSTDKKVKKSVNDLINISNLNKIYPFDNMGRTSSGLLLLSNDLYFKKHFKDKI	0.341
HMETLETYTSRLRQLEDITNNFKGVDKSFAIQAGREIRVMVVPEQVSDADMILMARDISKAIEAELEYPGQ	-0.0847
HMDFGMPEELQKKLDKMPALKAAFEALTPGRQRGYIFYFSQPKQSKTRELRIEKSIEQIMNGKGLND	-0.115
HMDIVIPIQVKNVSSGEVLDFPSIRAAARDLKFPKTTISLGVRYAGEKAYKGFVMRYRSDDPWPIVQES	-1.93
HMDDFVEIDGKKYEIDMSFDNILRLFDLLKDKSLNDVTKIETGLIMLIDDSLDDYDTEEKADIFVQIF	-0.0316
HMEDIKHVVANNIKKYRKEERLTLQQLSYLTGVSKTMLNQIETEKSSPSITILWRISSGLKIPLSKLISSP	-1.61
HMSGKWKIRILWYIAEYEVQRFGELRRRLGDITQSTLTEQLRELEQDGFVSRYVYQEVPSKVEYSLTE	0.143
HMRKKIIAQTLEEIRKSKGYSQKQVAAFIKVKPTTYNTYESGRTEPPAEILVRLSYLYRTPVDTLVQRDR	-2.07
HMGTLSLLVQKLMAVGLEGAKASEIVERFDRERIERQINALPSRKIKSSRTGFLIRAIELDIPVE	-2.09
HMVVPRSFKYEVLAHGGWAGNAQRYQTKEEALHAGLALSRRWTAVEDYRAVPSDDLPNQPAL	-0.259
HMEGVSSESVKEMLKSIIDGEDPHNPVSDQRITDILNSRGINISRRTVAKYRDELGIASSSRRKRY	0.0818
HMIDVNLVQRGKTLHLRRRVPMRYSSVERREYVSISLKTDSEAEARRKAGAAWDQMIAAWEARLA	-0.35
HMNQADNFNSLTKREKDVLLLVTQGESNKSIADKLVLSEVTVKSHLNSIFKKLNVTNRTQAVLVAMQMNLV	0.03
HMQQSQLDDIKSVVGGDEGYNKLREWTQANVPDETLKAFDKILDTQDPTMIKVAVEGFAAQMRQAE	-0.36
HMNIEEQVVAEVLVKDFMKQLTPRDIHILELRKNGYTYQEIAGQLGYHTHSAVKKRVDRLAEQWLAYTQGH	-1.53
HMPVAPTYALTVKTDPPSANVRLLNSPTPYQPGVRLPSGNYDIEVTQSGYATRKESVRIADRDVALNIAL	0.163
HMGNLVDGINKKLTHVRDSLPEGYTLDEFKSAFQQQYPAAYDAYEGDKGKQFDKWLGNVIQSLPKK	0.161
HMKPDMAVIVGSRTLTFATTTDRQILVLRTDGTMVNRLSMKAGETRTITLPAGVYIVNGKKIIV	-0.808
HMKKNLELGLLPHEVKSILGEPDFIDTITDIDGIRYDMWSYTKLNVTKRLYFEDLFLVRMEE	-1.43
HMNDIQIILQEAVARLPKKQQLVFNMKYFDHLKYQEISEILGTSVGGLKASYFQAVKKIENYIINKH	-2.38
HMGEKVIAVSGGFDPIHVGHLRMMQDAAQHGRLVVIVNSDEWLLKKKGYVFMPWEERAELIGAYDFVDE	-0.977
HMLERPLKLKSHYVSAINEKVAVQFQAGEERKSIMGTLTEVNQDTIVIDDRGSVTEIPFKSIIRAKTVF	0.258
HMFDKVSVNNLAEAIGRLDGIYQDVLRLYYVHELPSKEIGKILNINHLTVNTRLKRAREKLFKMLKEE	-2.57
HMTSMNNTEELIDMANKIIDNNPNMVLKYKEGRNVLDFFIGQVMKETKGRANPSATSKIFKDLLEK	0.169

Sequence	soluble fraction (log2)
HMTLTEQQITDNYKELRKIINDTFSGLRLDKLNHMYDDLEDRMVVAPASSVEHYHNSKVGGYVEHILHVI	-0.187
HMNNLSEELNVTFPRTRDQLLNILHYVQHKYGYISKVSMQEIGNHIKMPVSEIYGTVTSYSEFKI	-1.54
HMLKPVVLLGARGLTDAVEKEVERALDEHGLIKIHVPSDDREERDEIYTTLADKLNAARIQAIGKMLVLW	-0.162
HMDREILWTNYVAARKQEFIASSIDTIGAEYLDNRRFWDTQFEREWTIIAERLASGFGLTDDILSIVGSDF	-4.12
HMRPFAMNLLEKHKADIEVWLKHPNMTNTQIKRLLEELGTSVSVSSIDRFISTSFPKLPKHT	-0.17
HMVPVVGTTIPHEFIGKFGSARVMLKPAVEGSGVIAGGSARAVLELAGYKDIKTKVLGTNNPRNVVYATMN	0.0414
HMVSKQVTVNGIQYYQYTVQKSEGFYAISTKFGVTQDDIILANPSTKEGLRVGQEILIPIKT	-0.186
HMDSYSILGIEKESSMEDIEKAYIDKISKIKKEVKNEKNAAAFEAVLTKAYNDILSQKENISEEQELAE	0.011
HMVGVDMTVKEEVGKEGVTFTDLRPAGKVEIGNDIYDAVSNTGAFIQKGEKVKIIKYQAGQVYVEKLV	-0.121
HMEDAFLQRLISIIEANLSNVDFNVKMLAEQLNMSQPTLYRKVKQRSELSVIDMIRSIRILSLIHISEPTR	-0.988
HMNLYERFPIHELWKETFNETLDEEEHITFITSEFKPENIVLGQGFIAAPSKKDAVDWLKVIRTVLIFYDS	-0.941
HMTAIKAGDLVKITGTKYYGGQTIPGWVKNQNWYVQEVSGDRAVINKNESGTNAIMSPIRVSDLTPVS	0.183
HMFEPLTDREREVLQALADGLSDKEIAERLYISPATVRTHITAILGKLDANSRLQAVVVAARHNLVTL	-0.0803
HMNEQKVSSLLTPRQLAFIDEYLIDFNGAQAAIRAGYSHKTAGPQAARLLVNVNISRMIAERIEARNK	-1.7
HMTTYSVDLGDIRAVADSDGKLVELTLHAAVTTHYSHSELADRLNLAFTALREEAQADYETRY	0.127
HMPPFDDILAEYYEPLYRHVRRMVVSHDDAKDVMQEAMLRIFQGLDGLKDPSAVRTWVWRIATNEALRH	0.0662
HMHPNPLTEQEIAVLKGIAQGLSNQEIADQLYLSNGTVRNYVTNILSKLDAGNRTEAANIAKESGW	0.143
HMLAQVSDEGPIRAMVEAVMARSTQQLEDYKNGKVKLRQYFFGEVMKAAKGKANPTVINKLLDEMLPETL	0.255
HMPAERLSMRKIYEILRLKYGHGLSNREVALSVSVSRSTVADYLLRAQAAGLSWPLPDGLDETGLEQRLFP	-2.02
HMDADTVGQIRVVKQILDDGRLIVVDASGNPVLVRRSSALSLTAISQGDRIIVDPSVRLAIELLPNE	0.185
HMAAEGARNNSLFNSLRERALEVSSHNELEQIAFKMNETNIPPLRASEVISVVNSVWKNRISNQIIP	0.155
HMAVSTFGRITASSLNVRSGPSTDHEKVGSLAAGRVVELLEESDGWYRIENGYISTEYVTIVDPSQ	-0.355
HMPTVLKQGSTGQEVKELQQALSKLGYRVTVTGEFDTATHYGVVRFQRKHRLTIDGIVGPQTLSKIRAHQK	-2.86
HMRPQELSSLNTNQMRLYNSLPEAFITAEAKDIADKLRYSERSLFRFLNESNLFTKTEHGSYAKKA	0.133
HMLSNYIGMTLGEAKRNLGQGVNITVNGPNNDNAEVTGQDPTSGSSFDKSKDTITLTT	0.0581
